Measurements taken from paper PMC9352680, “A comprehensive thermodynamic model for RNA binding by the Saccharomyces cerevisiae Pumilio protein PUF4”.
Residue numbers refer to the chain shown, from its start. In names and notes the source's numbering stands.

T1: PUF4 RNA-binding domain (Saccharomyces cerevisiae, UniProt P25339 537-888)
T1 sequence: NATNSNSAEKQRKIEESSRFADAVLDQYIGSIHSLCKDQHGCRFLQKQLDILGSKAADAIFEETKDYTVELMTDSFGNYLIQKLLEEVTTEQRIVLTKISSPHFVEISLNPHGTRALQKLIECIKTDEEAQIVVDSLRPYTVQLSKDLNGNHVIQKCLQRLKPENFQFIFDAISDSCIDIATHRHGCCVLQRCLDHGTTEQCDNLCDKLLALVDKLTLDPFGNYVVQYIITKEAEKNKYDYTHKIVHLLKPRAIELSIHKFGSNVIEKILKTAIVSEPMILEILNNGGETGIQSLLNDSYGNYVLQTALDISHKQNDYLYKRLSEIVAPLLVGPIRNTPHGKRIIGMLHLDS

B1: Id_ii_S4_P5E.3_K5.2_C5.2_[C-2A]_[T-1C]_H5.2_A5.1_F5.1_T5.2_[T11C]_[A12T] (ssRNA)
RNA: UUUGACAACUGAUCGUUCUUUCUACUAUAUUAUUACUUUCUUUCUCGAUCAGUUGUCUUU
B2: Id_ii_S4_P5E.3_K5.2_C5.2_[C-2A]_[T-1C]_H5.2_A5.1_F5.1_T5.2_[A12C] (ssRNA)
RNA: B1 RNA with C36U, U37C
B3: Id_ii_S4_P5E.3_K5.2_C5.2_[C-2A]_[T-1A]_H5.2_A5.1_F5.1_T5.2_[T11C]_[A12C] (ssRNA)
RNA: B1 RNA with C25A, U37C
B4: Id_ii_S4_P5E.3_K5.2_C5.2_[C-2A]_H5.2_A5.1_F5.1_T5.2_[T11C] (ssRNA)
RNA: B1 RNA with C25U, U37A
B5: Ib_S1_P5E.1_K5.1_C5.1_H5.1_[A4G]_A5.1_[T5C]_F5.1_T5.1 (ssRNA)
RNA: UCUCUUUGUGCUAUUAUCUCUU
B6: Id_ii_S4_P5E.3_K5.2_C5.2_[T-1G]_H5.2_A5.1_F5.1_T5.2_[A12T] (ssRNA)
RNA: B1 RNA with A24C, C25G, C36U
B7: Id_ii_S4_P5E.3_K5.2_C5.2_[T-1C]_H5.2_A5.1_F5.1_T5.2_[T11C]_[A12T] (ssRNA)
RNA: B1 RNA with A24C
B8: Id_ii_S4_P5E.3_K5.2_C5.2_[T-1A]_H5.2_A5.1_F5.1_T5.2_[T11C]_[A12C] (ssRNA)
RNA: B1 RNA with A24C, C25A, U37C
B9: Id_ii_S4_P5E.3_K5.2_C5.2_[T-1A]_H5.2_A5.1_F5.1_T5.2_[T11A]_[A12G] (ssRNA)
RNA: B1 RNA with A24C, C25A, C36A, U37G
B10: Id_ii_S4_P5E.3_K5.2_C5.2_[T-1A]_H5.2_A5.1_F5.1_T5.2_[T11A]_[A12C] (ssRNA)
RNA: B1 RNA with A24C, C25A, C36A, U37C
B11: Id_ii_S4_P5E.3_K5.2_C5.2_[T-1A]_H5.2_A5.1_F5.1_T5.2_[T11A]_[A12T] (ssRNA)
RNA: B1 RNA with A24C, C25A, C36A
B12: Id_ii_S4_P5E.3_K5.2_C5.2_H5.2_A5.1_F5.1_T5.2_[T11C]_[A12G] (ssRNA)
RNA: B1 RNA with A24C, C25U, U37G
B13: Id_ii_S4_P5E.3_K5.2_C5.2_H5.2_A5.1_F5.1_T5.2_[T11C]_[A12T] (ssRNA)
RNA: B1 RNA with A24C, C25U
B14: Id_ii_S4_P5E.3_K5.2_C5.2_H5.2_A5.1_F5.1_T5.2_[A12T] (ssRNA)
RNA: B1 RNA with A24C, C25U, C36U
B15: Id_ii_S4_P5E.4_K5.3_C5.2_[C-2G]_[T-1C]_H5.3_A5.1_F5.1_T5.2_[T11A]_[A12T] (ssRNA)
RNA: B1 RNA with A24G, U26A, A27C, U28A, A29C, C36A
B16: Ia_S1_P5E.1_K5.1_C5.1_H5.1_A5.1_[A7G]_F5.1_T5.1 (ssRNA)
RNA: UCUCUUUGUAUUGUUAUCUCUU
B17: Ib_S1_P5E.1_K5.1_C5.1_H5.1_[A4C]_A5.1_[T5C]_F5.1_T5.1 (ssRNA)
RNA: UCUCUUUGUCCUAUUAUCUCUU
B18: Id_ii_S4_P5E.4_K5.3_C5.2_[C-2G]_H5.3_A5.1_F5.1_T5.2_[T11A]_[A12T] (ssRNA)
RNA: B1 RNA with A24G, C25U, U26A, A27C, U28A, A29C, C36A
B19: Id_ii_S4_P5E.4_K5.3_C5.2_[C-2G]_H5.3_A5.1_F5.1_T5.2_[A12C] (ssRNA)
RNA: UUUGACAACUGAUCGUUCUUUCUGUACACUUAUUAUCUUCUUUCUCGAUCAGUUGUCUUU
B20: Id_ii_S4_P5E.4_K5.3_C5.2_[C-2G]_H5.3_A5.1_F5.1_T5.2_[A12T] (ssRNA)
RNA: B19 RNA with C37U
B21: Id_ii_S4_P5E.4_K5.3_C5.2_[C-2T]_[T-1C]_H5.3_A5.1_F5.1_T5.2_[A12T] (ssRNA)
RNA: B19 RNA with G24U, U25C, C37U
B22: Id_ii_S4_P5E.4_K5.3_C5.2_[C-2T]_[T-1A]_H5.3_A5.1_F5.1_T5.2_[A12C] (ssRNA)
RNA: B19 RNA with G24U, U25A
B23: Id_ii_S4_P5E.4_K5.3_C5.2_[C-2T]_[T-1A]_H5.3_A5.1_F5.1_T5.2 (ssRNA)
RNA: B19 RNA with G24U, U25A, C37A
B24: Id_ii_S4_P5E.4_K5.3_C5.2_[C-2T]_H5.3_A5.1_F5.1_T5.2_[T11A]_[A12T] (ssRNA)
RNA: B19 RNA with G24U, U36A, C37U
B25: Id_ii_S4_P5E.4_K5.3_C5.2_[C-2T]_H5.3_A5.1_F5.1_T5.2_[A12T] (ssRNA)
RNA: B19 RNA with G24U, C37U

Molecular target: T1, PUF4 RNA-binding domain
Experiment: Mg; RNA-MaP; 20 mM Na-HEPES pH 7.4, 30 mM KOAc, 0.75 mM MgCl2, 0.1% Tween-20, 5% glycerol, 0.1 mg/mL BSA, 2 mM DTT; 25 C; 0.0125-409.6 nM protein
Settings: tags: N-His6-TEV cleaved; C-SNAP kept, Cy3B-labelled; label: tethered on chip by stalled RNA polymerase

Row | Binder | Kd
1 | B1 | 122 nM
2 | B2 | 216 nM
3 | B3 | 896 nM
4 | B4 | 203 nM
5 | B5 | 28 nM
6 | B6 | 15.6 nM
7 | B7 | 65.6 nM
8 | B8 | 116 nM
9 | B9 | > 2300 nM
10 | B10 | 143 nM
11 | B11 | 214 nM
12 | B12 | 470 nM
13 | B13 | 96.6 nM
14 | B14 | 168 nM
15 | B15 | 559 nM
16 | B16 | 11.2 nM
17 | B17 | 79.5 nM
18 | B18 | 2.81 nM
19 | B19 | 3 nM
20 | B20 | 2.65 nM
21 | B21 | > 2300 nM
22 | B22 | > 2300 nM
23 | B23 | 893 nM
24 | B24 | > 2300 nM
25 | B25 | > 2300 nM
